Experimental data from paper doi:10.1101/2024.01.23.574818.

Target: RmlT, wall teichoic acid rhamnosyltransferase of Listeria monocytogenes EGDe (Listeria monocytogenes EGDe)
Assay: SEC

RmlT, wall teichoic acid rhamnosyltransferase of Listeria monocytogenes EGDe (enzyme)
stoichiometry N: 2
